The values that follow come from US20170088610A1.

In test [1] the target is human nerve growth factor (human), P01138.
The target is the same in test [2]. The source holds these as a separate data set.
For test [3] the target is unchanged. Briefly: cell-based or functional assay.

Chain of human nerve growth factor (human), P01138 (P01138 122-241 limits assumed): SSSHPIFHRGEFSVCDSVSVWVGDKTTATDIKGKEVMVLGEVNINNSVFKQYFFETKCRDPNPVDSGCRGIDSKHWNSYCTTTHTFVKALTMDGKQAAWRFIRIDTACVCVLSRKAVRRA

B1: antibody E3 (full antibody) (antibody, human IgG2, kappa)
heavy: QVQLQESGPGLVKPSETLSLTCTVSGFSLIGYDLNWIRQPPGKGLEWIGIIWGDGTTDYNSAVKSRVTISKDTSKNQFSLKLSSVTAADTAVYYCARGGYWYATSYYFDYWGQGTLVTVSSASTKGPSVFPLAPCSRSTSESTAALGCLVKDYFPEPVTVSWNSGALTSGVHTFPAVLQSSGLYSLSSVVTVPSSNFGTQTYTCNVDHKPSNTKVDKTVERKCCVECPPCPAPPVAGPSVFLFPPKPKDTLMISRTPEVTCVVVDVSHEDPEVQFNWYVDGVEVHNAKTKPREEQFNSTFRVVSVLTVVHQDWLNGKEYKCKVSNKGLPSSIEKTISKTKGQPREPQVYTLPPSREEMTKNQVSLTCLVKGFYPSDIAVEWESNGQPENNYKTTPPMLDSDGSFFLYSKLTVDKSRWQQGNVFSCSVMHEALHNHYTQKSLSLSPGK
light: not shown
modifications: not checked
B1 showed an IC50 (read off the curve), NGF-dependent survival of E13.5 mouse trigeminal neurons (0.4 ng/ml human NGF, 48 h) (nM binding sites) in test [1] of 0.02. The same molecule registered an IC50 (read off the curve), NGF-dependent survival of E13.5 trigeminal neurons (0.4 ng/ml human NGF, 48 h) in test [2] of 8 pM. The molecule also registered an NGF-elicited survival of E17/18 trigeminal neurons in test [3] of 20 nM.
